Test results: article doi:10.1101/528711

Columns and labels:
tIVR = tIVR (UniProt P45974); assay: other fluorescence titration
Atto532-tUI [1] = target: Atto532-tUI (UniProt Q9UMX0); assay: other fluorescence titration
Atto532-tUI [2] = target: Atto532-tUI (UniProt Q9UMX0); assay: stopped-flow fluorescence kinetics
tUI = tUI (UniProt Q9UMX0); assay: other fluorescence titration
Atto532-tISR = Atto532-tISR (UniProt P45974); assay: other fluorescence titration
Sequence of Atto532-tISR (P45974 whole entry, looked up): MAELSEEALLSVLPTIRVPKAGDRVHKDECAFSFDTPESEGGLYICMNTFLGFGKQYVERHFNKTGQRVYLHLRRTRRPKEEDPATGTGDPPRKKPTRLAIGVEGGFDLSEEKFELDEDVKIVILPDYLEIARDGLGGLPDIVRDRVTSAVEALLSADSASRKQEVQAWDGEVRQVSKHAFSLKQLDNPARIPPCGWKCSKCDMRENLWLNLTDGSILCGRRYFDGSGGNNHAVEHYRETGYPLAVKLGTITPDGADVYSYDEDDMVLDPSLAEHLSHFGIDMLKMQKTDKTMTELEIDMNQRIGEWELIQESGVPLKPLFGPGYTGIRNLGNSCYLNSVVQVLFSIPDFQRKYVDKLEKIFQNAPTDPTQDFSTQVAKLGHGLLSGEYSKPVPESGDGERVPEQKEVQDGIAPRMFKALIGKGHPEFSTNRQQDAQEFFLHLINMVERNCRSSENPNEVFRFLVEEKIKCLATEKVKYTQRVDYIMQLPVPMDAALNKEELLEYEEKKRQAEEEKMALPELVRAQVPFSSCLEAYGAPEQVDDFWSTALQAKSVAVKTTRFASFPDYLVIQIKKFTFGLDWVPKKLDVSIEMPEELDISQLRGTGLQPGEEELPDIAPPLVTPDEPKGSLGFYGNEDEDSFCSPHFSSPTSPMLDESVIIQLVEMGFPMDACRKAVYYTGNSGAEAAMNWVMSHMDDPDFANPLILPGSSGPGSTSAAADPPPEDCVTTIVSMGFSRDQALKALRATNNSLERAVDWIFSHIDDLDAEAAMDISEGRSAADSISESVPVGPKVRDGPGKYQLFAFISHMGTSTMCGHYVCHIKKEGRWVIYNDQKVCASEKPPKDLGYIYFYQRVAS

Sequence of tIVR (P45974 whole entry, looked up): as above
Sequence of Atto532-tUI (Q9UMX0 whole entry, looked up): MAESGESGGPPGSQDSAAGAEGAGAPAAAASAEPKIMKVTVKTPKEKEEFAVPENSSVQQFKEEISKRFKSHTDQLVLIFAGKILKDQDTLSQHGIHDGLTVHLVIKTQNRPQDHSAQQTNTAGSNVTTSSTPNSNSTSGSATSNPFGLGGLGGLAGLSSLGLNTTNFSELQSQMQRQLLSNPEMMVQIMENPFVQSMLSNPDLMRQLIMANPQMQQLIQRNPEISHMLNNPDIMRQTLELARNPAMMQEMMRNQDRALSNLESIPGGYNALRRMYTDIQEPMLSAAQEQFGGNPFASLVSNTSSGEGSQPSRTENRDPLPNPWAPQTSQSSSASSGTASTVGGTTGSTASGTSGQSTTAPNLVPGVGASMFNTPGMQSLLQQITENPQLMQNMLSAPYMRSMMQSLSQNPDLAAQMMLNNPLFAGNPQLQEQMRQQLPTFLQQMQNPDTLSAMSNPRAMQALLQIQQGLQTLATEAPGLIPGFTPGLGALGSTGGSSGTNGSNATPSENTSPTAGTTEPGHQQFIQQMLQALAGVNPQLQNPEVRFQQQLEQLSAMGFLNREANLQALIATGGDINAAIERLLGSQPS
Sequence of Nedd8 (Q15843 1-76): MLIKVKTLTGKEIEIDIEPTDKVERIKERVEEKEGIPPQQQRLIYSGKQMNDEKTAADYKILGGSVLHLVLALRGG
Sequence of tUI (Q9UMX0 whole entry, looked up): as the sequence (Q9UMX0 whole entry, looked up) above

| fold preference for Ub over Nedd8 (tIVR) [fold] | fold higher affinity for Ub than Nedd8 (Atto532-tUI [1]) [fold] | Kd (Atto532-tUI [2]) [nM] | Kd (tIVR) [nM] | Ki (tIVR) [nM] | Ki (tUI) [nM] | Kd (Atto532-tUI [1]) [nM] | Kd (Atto532-tISR) [nM] | Substance |
| --- | --- | --- | --- | --- | --- | --- | --- | --- |
| 3000 | 120 |  |  |  |  |  |  | Nedd8 (from UniProt Q15843 1-76) (natural protein) |
|  |  | 0.0564 | 25.4 | 19 | 0.194 | 0.066 | 24.3 | ubiquitin (from UniProt P0CG48 1-76) (natural protein) |
